Patent US6355245

Columns and labels:
[1] = biological target: human complement component C5 (purified) (human) (UniProt P01031); experiment: cell-based or functional assay
[2] = biological target: human complement component C5 (purified) (human) (UniProt P01031); experiment: plate-bound C3, C5 20 µg/ml with 5G1.1 Fab 20 µg/ml, bound C5 detected with N19/8; competitor C3
[3] = biological target: human complement component C5 (purified) (human) (UniProt P01031); experiment: plate-bound C4, C5 20 µg/ml with 5G1.1 Fab 20 µg/ml, bound C5 detected with N19/8; competitor C4
[4] = biological target: human complement component C5 (purified) (human) (UniProt P01031); experiment: solution equilibrium with C5, free antibody measured by ELISA (Friguet method), Scatchard analysis

UniProt P01031, sequence (P01031 19-673 T389I limits assumed, chain 1 of 2): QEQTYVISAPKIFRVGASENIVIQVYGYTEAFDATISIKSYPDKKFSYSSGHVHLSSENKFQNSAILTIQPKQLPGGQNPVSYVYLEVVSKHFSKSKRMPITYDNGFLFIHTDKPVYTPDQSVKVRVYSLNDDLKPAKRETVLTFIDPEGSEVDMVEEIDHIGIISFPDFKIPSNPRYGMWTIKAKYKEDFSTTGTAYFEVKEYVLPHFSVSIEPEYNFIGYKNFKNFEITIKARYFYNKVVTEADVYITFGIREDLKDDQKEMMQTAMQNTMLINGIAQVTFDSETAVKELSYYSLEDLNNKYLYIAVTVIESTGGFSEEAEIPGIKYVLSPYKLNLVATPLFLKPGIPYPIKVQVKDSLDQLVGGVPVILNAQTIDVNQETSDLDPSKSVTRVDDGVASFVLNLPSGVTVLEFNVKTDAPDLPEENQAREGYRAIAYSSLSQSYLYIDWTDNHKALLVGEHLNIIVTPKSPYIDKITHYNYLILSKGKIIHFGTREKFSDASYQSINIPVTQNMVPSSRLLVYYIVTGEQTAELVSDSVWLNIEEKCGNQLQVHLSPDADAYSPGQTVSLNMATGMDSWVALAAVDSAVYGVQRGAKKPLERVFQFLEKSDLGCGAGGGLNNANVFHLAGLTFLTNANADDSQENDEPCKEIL
UniProt P01031, sequence (P01031 678-1676 V802I limits assumed, chain 2 of 2): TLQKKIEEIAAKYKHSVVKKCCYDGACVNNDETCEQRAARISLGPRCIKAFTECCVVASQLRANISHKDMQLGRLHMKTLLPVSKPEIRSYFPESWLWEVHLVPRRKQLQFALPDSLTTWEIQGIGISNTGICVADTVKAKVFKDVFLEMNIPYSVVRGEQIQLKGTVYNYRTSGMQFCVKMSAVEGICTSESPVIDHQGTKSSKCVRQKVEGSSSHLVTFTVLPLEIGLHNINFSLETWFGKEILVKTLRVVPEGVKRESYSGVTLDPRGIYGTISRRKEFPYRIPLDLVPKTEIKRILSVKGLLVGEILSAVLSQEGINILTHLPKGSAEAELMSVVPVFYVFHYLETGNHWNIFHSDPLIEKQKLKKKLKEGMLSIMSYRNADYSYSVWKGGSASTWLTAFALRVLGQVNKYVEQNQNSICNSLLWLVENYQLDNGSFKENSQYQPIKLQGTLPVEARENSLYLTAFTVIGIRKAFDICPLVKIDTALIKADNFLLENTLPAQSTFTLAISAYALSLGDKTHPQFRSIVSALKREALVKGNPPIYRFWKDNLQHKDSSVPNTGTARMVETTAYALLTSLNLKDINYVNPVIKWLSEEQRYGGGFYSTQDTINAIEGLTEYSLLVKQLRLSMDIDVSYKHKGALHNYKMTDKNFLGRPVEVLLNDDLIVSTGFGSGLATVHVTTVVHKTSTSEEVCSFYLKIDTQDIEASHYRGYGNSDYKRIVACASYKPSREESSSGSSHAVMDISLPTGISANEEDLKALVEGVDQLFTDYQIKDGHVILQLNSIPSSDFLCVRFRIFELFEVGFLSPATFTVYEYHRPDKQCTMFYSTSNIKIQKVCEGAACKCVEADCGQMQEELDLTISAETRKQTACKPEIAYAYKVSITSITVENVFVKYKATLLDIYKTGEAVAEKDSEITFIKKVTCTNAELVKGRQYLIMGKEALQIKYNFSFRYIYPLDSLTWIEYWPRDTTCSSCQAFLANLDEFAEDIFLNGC

Substance	concentration that completely blocks C5a generation [1] [µM]	concentration that completely blocks C5b-9-mediated hemolysis in 20% human serum [1] [µM]	percent inhibition of C5 binding to C3 [2] [%]	percent inhibition of C5 binding to C4 [3] [%]	concentration that blocks serum hemolytic activity, 20% v/v human serum [1] [µg/mL]	molar ratio at which serum hemolytic activity is blocked, 20% v/v human serum (molar ratio 5G1.1/C5) [1]	serum hemolytic activity (chicken erythrocyte hemolysis assay, human serum) (molar ratio antibody/C5) [1]	Kd [4] [nM]	blocking of complement hemolytic activity and of C5a generation [1] [%]
5G1.1 Fab (derived from 5G1.1 by conventional papain digestion)	0.06 to 0.08	0.06 to 0.08	60 to 90	60 to 90	–	–	–	–	–
5G1.1 monoclonal antibody (native murine anti-human C5 mAb, produced by hybridoma 5G1.1, ATCC HB-11625)	0.06 to 0.08	0.06 to 0.08	–	–	6.25	0.5	0.5	0.03	–
chimeric N19/8 Fab (N19-8 VL/human kappa constant region and N19-8 VH/human IgG1 Fd)	–	–	–	–	–	–	–	–	50
m5G1.1 scFv (non-humanized murine 5G1.1 scFv, 5G1.1M1scFv)	0.15	0.15	–	–	–	–	–	–	–
